Data on 1 substance can be found in article PMC12183618.

In assay [1] the target is MmpL10‐mEGFP‐FLMsm (Mycobacterium smegmatis). Put plainly: SEC; Superose 6 Increase 10/300 GL, 50 mM Tris-HCl pH 8, 150 mM NaCl, 3x CMC LMNG (m1 also in DDM and LDAO); apparent MW from a calibration curve. For orientation: Size exclusion chromatography separates by hydrodynamic size, large species first.
Assay [2] has the same target. The experiment in a line: negative-stain electron microscopy; top SEC peak fraction in LMNG at 0.5 μM, uranyl acetate 1%; low-resolution map, C1 symmetry, fitted with a trimeric AlphaFold v3 model.

As a reminder, the stoichiometry N is the number of molecules, sites or subunits per partner or assembly. MmpL10‐mEGFP‐FLMsm (natural protein): the stoichiometry N in assay [1] and in assay [2] was 3 throughout.
